Columns and labels:
unprocessed c-Met (p170) = target: T1, unprocessed c-Met (p170) (human, UniProt P08581 25-1390); assay: immunoprecipitation from A549 cells, western blot with 25H2 under reducing conditions
T1 construct: whole, on cells; Single-chain precursor, not cleaved at the furin site; also called unprocessed form of c-Met; c-Met precursor

[1] = target: T2, c-Met receptor as expressed by human tumor cells (total c-Met) (human, UniProt P08581 25-1390); assay: flow cytometry on A549 cells, PE-conjugated anti-mouse secondary antibody
T2 construct: whole, on cells; also called surface c-Met; HGFR

[2] = target: T3, purified truncated c-Met fragment designated 25-567H (human, UniProt P08581 25-567); assay: ELISA, plate coated with recombinant truncated c-Met antigen
T3 construct: Produced in transfected CHO-Lec cells; also called c-Met antigen; c-Met Ag

peptide 24 = target: T4, peptide 24 (N-terminal biotin); assay: ELISA on biotinylated 20-mer c-Met peptides on streptavidin plates, A405 nm
T4 peptide: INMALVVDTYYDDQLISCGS

peptide 23 = target: T5, peptide 23 (N-terminal biotin); assay: as above
T5 peptide: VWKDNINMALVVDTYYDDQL

peptide 25 = target: T6, peptide 25 (N-terminal biotin); assay: as above
T6 peptide: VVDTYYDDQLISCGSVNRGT

peptide 48 = target: T7, peptide 48 (N-terminal biotin); assay: ELISA on biotinylated 20-mer c-Met peptides on streptavidin plates, A405 nm, mean ± SEM
T7 peptide: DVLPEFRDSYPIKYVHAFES

peptide 47 = target: T8, peptide 47 (N-terminal biotin); assay: as above
T8 peptide: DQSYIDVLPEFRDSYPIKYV

peptide 46 = target: T9, peptide 46 (N-terminal biotin); assay: as above
T9 peptide: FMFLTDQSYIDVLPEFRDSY

[3] = target: T3, purified truncated c-Met fragment …; assay: BIAcore, His6-c-Met 25-567 on Ni-NTA chip, antibody passed over; apparent KD

T3 sequence (P08581 other isoform, or with tags, fused parts or gaps limits assumed): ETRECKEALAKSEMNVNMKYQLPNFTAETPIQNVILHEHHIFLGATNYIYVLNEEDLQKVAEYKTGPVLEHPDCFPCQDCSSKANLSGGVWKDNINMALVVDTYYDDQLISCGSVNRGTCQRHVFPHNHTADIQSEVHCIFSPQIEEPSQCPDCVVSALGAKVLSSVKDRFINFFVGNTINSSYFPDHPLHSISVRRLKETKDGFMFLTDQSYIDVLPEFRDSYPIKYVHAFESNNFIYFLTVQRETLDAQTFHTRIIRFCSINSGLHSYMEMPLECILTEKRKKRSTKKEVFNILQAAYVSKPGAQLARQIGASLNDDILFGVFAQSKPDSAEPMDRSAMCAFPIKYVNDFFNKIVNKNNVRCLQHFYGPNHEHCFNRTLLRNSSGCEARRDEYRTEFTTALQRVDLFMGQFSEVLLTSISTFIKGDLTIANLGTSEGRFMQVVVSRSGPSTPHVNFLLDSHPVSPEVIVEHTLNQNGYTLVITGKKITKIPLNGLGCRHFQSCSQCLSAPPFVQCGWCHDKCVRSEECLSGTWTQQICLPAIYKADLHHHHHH
T2 sequence (P08581 25-1390): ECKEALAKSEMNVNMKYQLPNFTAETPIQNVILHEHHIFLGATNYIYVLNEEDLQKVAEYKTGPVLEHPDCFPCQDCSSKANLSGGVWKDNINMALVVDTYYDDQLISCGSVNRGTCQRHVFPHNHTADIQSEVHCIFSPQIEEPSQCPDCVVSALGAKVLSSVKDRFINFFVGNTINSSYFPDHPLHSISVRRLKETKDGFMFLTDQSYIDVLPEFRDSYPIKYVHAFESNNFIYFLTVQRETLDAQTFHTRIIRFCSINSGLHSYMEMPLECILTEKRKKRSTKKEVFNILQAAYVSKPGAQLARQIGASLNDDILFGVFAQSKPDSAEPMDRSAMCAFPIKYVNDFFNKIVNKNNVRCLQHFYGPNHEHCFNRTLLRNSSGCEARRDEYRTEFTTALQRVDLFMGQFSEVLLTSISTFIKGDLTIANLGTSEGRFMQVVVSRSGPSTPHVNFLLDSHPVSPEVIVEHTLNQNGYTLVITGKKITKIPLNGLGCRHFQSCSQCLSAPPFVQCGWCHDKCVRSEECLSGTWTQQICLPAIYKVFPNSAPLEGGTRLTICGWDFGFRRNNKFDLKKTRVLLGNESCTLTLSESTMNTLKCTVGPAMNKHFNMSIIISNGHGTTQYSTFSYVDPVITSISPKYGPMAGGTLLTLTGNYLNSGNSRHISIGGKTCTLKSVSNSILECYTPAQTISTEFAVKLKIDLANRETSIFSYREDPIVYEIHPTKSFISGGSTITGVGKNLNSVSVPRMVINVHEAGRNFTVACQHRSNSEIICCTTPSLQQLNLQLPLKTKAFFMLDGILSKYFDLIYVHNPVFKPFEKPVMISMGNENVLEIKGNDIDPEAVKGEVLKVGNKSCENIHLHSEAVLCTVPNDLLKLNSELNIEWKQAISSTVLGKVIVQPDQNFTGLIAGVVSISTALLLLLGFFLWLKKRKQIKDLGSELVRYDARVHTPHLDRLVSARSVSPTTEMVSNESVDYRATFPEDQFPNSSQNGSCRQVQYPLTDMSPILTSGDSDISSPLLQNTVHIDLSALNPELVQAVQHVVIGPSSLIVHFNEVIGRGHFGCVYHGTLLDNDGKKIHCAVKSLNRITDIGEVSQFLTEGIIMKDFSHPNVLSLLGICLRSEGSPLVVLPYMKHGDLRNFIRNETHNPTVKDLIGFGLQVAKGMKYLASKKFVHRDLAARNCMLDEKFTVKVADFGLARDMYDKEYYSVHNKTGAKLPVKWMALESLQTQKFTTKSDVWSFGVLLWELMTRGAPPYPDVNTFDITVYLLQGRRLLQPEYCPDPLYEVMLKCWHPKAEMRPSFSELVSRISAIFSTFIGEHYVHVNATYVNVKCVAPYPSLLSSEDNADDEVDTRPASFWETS
T1 sequence (P08581 25-1390): as above

B1: antibody LMH 85 (antibody, V domains shown)
VH: QVQLQQSGAELAKPGASVKMSCKASGYTFIIYWIHWIKQRPGQGLEWIGYINPSNDYTEYNQKFKDKATLTADKSSNTAFMQLSSLTSEDSAVYYCARDSYDYDDGAYAMDYWGQGTSVTVSS
VL: QIVLSQSPAILSASPGEKVTMTCRASSGVNYMHWYQQKPGSSPKPWIYATSNLASGVPARFSGSGSGTSYSLTISRVEAEDAATYYCQQWISHPFTFGSGTKLEIK
notes: Mouse monoclonal antibody from a hybridoma
B1: binds (unprocessed c-Met (p170)); binds [1]; binds [2].

B2: antibody LMH 82 (antibody, V domains shown)
VH: EVQLQQSGPELVKPGASVKMSCKASGYTFTDYYMKWVKQSHGKNLEWIGDINPNNGGTNYNQKFKGKATLTVDKSSSTAYMQLNSLTSEDSAVYYCARSGYWGQGTTLTVSS
VL: DVLMTQTPLSLPVSLGDQASISCRSSQSILHSNGNTYLEWYLQKPGQSPKLLIYKVSNRFSGVPDRFSGSGSGTDFTLKISRVEAEDLGVYYCFQGSHVPWTFGGGTKLEIK
notes: Mouse monoclonal antibody from a hybridoma; also called hybridoma PTA-11406
B2: binds (peptide 24); binds (peptide 23); binds (peptide 25).

B3: antibody LMH 87 (antibody, V domains shown)
VH: QVQLQQSGPELVKSGASVKMSCKASGNTLKDDHVHWVKQRPGQGLEWIGWIYPGGGRTRYNEKFKGKTTLTADKPSSTVNMLLSSLTSEDSAIYFCTNLVFDVWGAGTTVTVSS
VL: DIVMTQAAPSVPVTPGESVSISCRSSKSLLHSNGNTYLYWFLQRPGQSPQVLIYRMSNLASGVPDRFSGSGSGTAFTLRIRRVEAEDVGVYYCMQNLEYPFTFGGGTKLEIK
notes: as for B1
B3: binds (peptide 48); binds (peptide 47); binds (peptide 46). The Kd [3] was 2.6 nM.

Reference: patent US20130171063A1 (LUDWIG INSTITUTE FOR CANCER RESEARCH, published 2013)
